Experimental data published in patent publication US20200407397A1 (RESEARCH FOUNDATION FOR THE STATE UNIVERSITY OF NEW YORK, published 2020).
Where no end group is shown, it is not given here.

How the values were obtained:
[1] = molecular target: recombinant LDHA (human, UniProt P00338 1-332); assay: fluorescence anisotropy, labelled peptide with recombinant LDHA
Method: Fluorescence anisotropy was measured in triplicate using a SpectraMax i3 equipped with rhodamine fluorescence polarization module (lex\lem.535 nm/595 nm). Curve fitting was done in KaleidaGraph 4.0.

[2] = molecular target: Lactate dehydrogenase A (LDHA), endogenous (human, UniProt P00338 2-332); assay: anti-FLAG IP from HEK293, immunoblot for LDHA

Row | Binder | binding result [1] | binding result [2]
1 | FLCN P228A mutant (FLAG-tagged) (other, Full FLCN protein with a point mutation in the FLCN-10 region, expressed in HEK293 cells; not shown: FLAG tag (immunoprecipitated using anti-FLAG agarose)) MNAIVALCHFCELHGPRTLFCTEVLHAPLPQGDGNEDSPGQGEQAEEEEGGIQMNSRMRAHSPAEGASVESSSPGPKKSDMCEGCRSLAAGHPGYISHDKETSIKYVSHQHPSHPQLFSIVRQACVRSLSCEVCPGREGPIFFGDEQHGFVFSHTFFIKDSLARGFQRWYSIITIMMDRIYLINSWPFLLGKVRGIIDELQGKALKVFEAEQFGCPQRAQRMNTAFTAFLHQRNGNAARSLTSLTSDDNLWACLHTSFAWLLKACGSRLTEKLLEGAPTEDTLVQMEKLADLEEESESWDNSEAEEEEKAPVLPESTEGRELTQGPAESSSLSGCGSWQPRKLPVFKSLRHMRQVLGAPSFRMLAWHVLMGNQVIWKSRDVDLVQSAFEVLRTMLPVGCVRIIPYSSQYEEAYRCNFLGLSPHVQIPPHVLSSEFAVIVEVHAAARSTLHPVGCEDDQSLSKYEFVVTSGSPVAADRVGPTILNKIEAALTNQNLSVDVVDQCLVCLKEEWMNKVKVLFKFTKVDSRPKEDTQKLLSILGASEEDNVKLLKFWMTGLSKTYKSHLMSTVRSPTASESRN |  | no binding
2 | FLCN R221A mutant (FLAG-tagged) (other, Full FLCN protein with a point mutation in the FLCN-10 region, expressed in HEK293 cells; not shown: FLAG tag (immunoprecipitated using anti-FLAG agarose)) MNAIVALCHFCELHGPRTLFCTEVLHAPLPQGDGNEDSPGQGEQAEEEEGGIQMNSRMRAHSPAEGASVESSSPGPKKSDMCEGCRSLAAGHPGYISHDKETSIKYVSHQHPSHPQLFSIVRQACVRSLSCEVCPGREGPIFFGDEQHGFVFSHTFFIKDSLARGFQRWYSIITIMMDRIYLINSWPFLLGKVRGIIDELQGKALKVFEAEQFGCPQRAQAMNTAFTPFLHQRNGNAARSLTSLTSDDNLWACLHTSFAWLLKACGSRLTEKLLEGAPTEDTLVQMEKLADLEEESESWDNSEAEEEEKAPVLPESTEGRELTQGPAESSSLSGCGSWQPRKLPVFKSLRHMRQVLGAPSFRMLAWHVLMGNQVIWKSRDVDLVQSAFEVLRTMLPVGCVRIIPYSSQYEEAYRCNFLGLSPHVQIPPHVLSSEFAVIVEVHAAARSTLHPVGCEDDQSLSKYEFVVTSGSPVAADRVGPTILNKIEAALTNQNLSVDVVDQCLVCLKEEWMNKVKVLFKFTKVDSRPKEDTQKLLSILGASEEDNVKLLKFWMTGLSKTYKSHLMSTVRSPTASESRN |  | no binding
3 | FLCN-F226A-FLAG (other, Expressed in HEK293 and UOK257 cells; not shown: FLAG tag) MNAIVALCHFCELHGPRTLFCTEVLHAPLPQGDGNEDSPGQGEQAEEEEGGIQMNSRMRAHSPAEGASVESSSPGPKKSDMCEGCRSLAAGHPGYISHDKETSIKYVSHQHPSHPQLFSIVRQACVRSLSCEVCPGREGPIFFGDEQHGFVFSHTFFIKDSLARGFQRWYSIITIMMDRIYLINSWPFLLGKVRGIIDELQGKALKVFEAEQFGCPQRAQRMNTAATPFLHQRNGNAARSLTSLTSDDNLWACLHTSFAWLLKACGSRLTEKLLEGAPTEDTLVQMEKLADLEEESESWDNSEAEEEEKAPVLPESTEGRELTQGPAESSSLSGCGSWQPRKLPVFKSLRHMRQVLGAPSFRMLAWHVLMGNQVIWKSRDVDLVQSAFEVLRTMLPVGCVRIIPYSSQYEEAYRCNFLGLSPHVQIPPHVLSSEFAVIVEVHAAARSTLHPVGCEDDQSLSKYEFVVTSGSPVAADRVGPTILNKIEAALTNQNLSVDVVDQCLVCLKEEWMNKVKVLFKFTKVDSRPKEDTQKLLSILGASEEDNVKLLKFWMTGLSKTYKSHLMSTVRSPTASESRN |  | no binding

Second part, the binder after the results:

Row | binding result [1] | binding result [2] | Binder
4 | binds |  | AQRMNTAFTP (also: Rhodamine B label, site not given here, Labelled form used for fluorescence anisotropy and for the ex vivo tissue treatment; also called FLCN-10-Rhod-B; Rhodamine-B-labeled FLCN-10) [FLCN-10-Rhodamine B]
5 |  | binds | FLCN-M222A-FLAG (other, Expressed in HEK293, UOK257 and ccRCC cells; also called M222A mutant; not shown: FLAG tag) MNAIVALCHFCELHGPRTLFCTEVLHAPLPQGDGNEDSPGQGEQAEEEEGGIQMNSRMRAHSPAEGASVESSSPGPKKSDMCEGCRSLAAGHPGYISHDKETSIKYVSHQHPSHPQLFSIVRQACVRSLSCEVCPGREGPIFFGDEQHGFVFSHTFFIKDSLARGFQRWYSIITIMMDRIYLINSWPFLLGKVRGIIDELQGKALKVFEAEQFGCPQRAQRANTAFTPFLHQRNGNAARSLTSLTSDDNLWACLHTSFAWLLKACGSRLTEKLLEGAPTEDTLVQMEKLADLEEESESWDNSEAEEEEKAPVLPESTEGRELTQGPAESSSLSGCGSWQPRKLPVFKSLRHMRQVLGAPSFRMLAWHVLMGNQVIWKSRDVDLVQSAFEVLRTMLPVGCVRIIPYSSQYEEAYRCNFLGLSPHVQIPPHVLSSEFAVIVEVHAAARSTLHPVGCEDDQSLSKYEFVVTSGSPVAADRVGPTILNKIEAALTNQNLSVDVVDQCLVCLKEEWMNKVKVLFKFTKVDSRPKEDTQKLLSILGASEEDNVKLLKFWMTGLSKTYKSHLMSTVRSPTASESRN
